# Results reported in patent publication US20080261892A1, “Acid Addition Salts of Ac-Phscn-Nh2” (priority 2005, published 2008).
# Experiments:
# Assay type in all cases: physicochemical
# [1] = Solution phase stability of free base and hydrochloride salt (monomer vs dimer by HPLC), Example 15; settings: for % dimer / % monomer: solution in distilled water, 25±1° C.
# Procedure: A 1.657 mM solution of Ac—PHSCN—NH2 in distilled water and a 1.653 mM solution of the hydrochloride salt of Ac—PHSCN—NH2 in distilled water were placed in a water bath at 25±1° C. Aliquots (800 μL) were periodically removed and the amount of dimerization was determined by HPLC.
# (§1) All HPLC spectra were taken on a Waters HPLC that included Breeze software, a Waters 2487 Dual λ Absorbance Detector, a Waters 1525 Binary HPLC Pump, and a Waters 717 plus Autosampler. The column was a Phenomenex Synergi 4μ Hydro-RP 80A, 250×4.60 mm 4μ micron. The 40 minute gradient that was used is described in the table below.
# Mobile Phase A: 0.1% TFA in acetonitrile Mobile Phase B: 0.1% TFA in water
# (§2) The HPLC peak for Ac-Pro-His-Ser-Cys-Asn-NH2 monomer at approximately 9.2 minutes, and the peak for ATN-161 dimer at approximately 10.0 minutes were integrated in order to determine the percentage of these two species in each sample.
# [2] = Solid phase stability of free base, methanesulfonic acid salt and nitric acid salt (HPLC), Example 18; settings: solid stored at 25±0.5° C.
# Procedure: as §1
# [3] = Solid phase stability of free base and hydrochloride salt (monomer vs dimer by HPLC), Example 16; settings: for % dimer / % monomer: solid stored at 25±1° C.
# Procedure: as §1, §2
# Samples of 0.8-1.2 mg of Ac—PHSCN—NH2 and Ac—PHSCN—NH2 hydrochloride salt were weighed into HPLC sample vials and stored at 25±1° C. A 0 h time point was taken. Samples were periodically removed and diluted with distilled water to give a 1 mg/mL solution. The amount of dimerization was determined by HPLC as described in Example 15. The results are illustrated graphically in FIG. 3.
# [4] = Solution phase stability of free base, methanesulfonic acid salt and nitric acid salt (HPLC), Example 17; settings: solution in distilled water, 25±0.5° C.
# Procedure: as §1
# A t=0 h timepoint was taken for each solution. The volumetric flasks were placed in a water bath at 25±0.5° C. and, periodically, a 0.7 mL aliquot was removed and the solution analyzed by HPLC as described in Example 15.
substance,measurement,setting,value
Ac-Pro-His-Ser-Cys-Asn-NH2 (Ac-PHSCN-NH2) [Free Base],"conversion to other products (e.g., the dimer)",[1]; in solution after more than 500 hours at room temperature,completely converted to other products
same,% dimer,[1]; 0 h,6.7%
same,% monomer,[1]; 0 h,93.3%
same,% dimer,[1]; 69 h,17.4%
same,% monomer,[1]; 69 h,82.6%
same,% dimer,[1]; 140 h,23.5%
same,% monomer,[1]; 140 h,76.5%
same,% dimer,[1]; 188 h,28.1%
same,% monomer,[1]; 188 h,71.9%
same,% dimer,[1]; 236 h,34.3%
same,% monomer,[1]; 236 h,65.7%
same,% dimer,[1]; 309 h,38.9%
same,% monomer,[1]; 309 h,61.1%
same,% dimer,[1]; 357 h,43.3%
same,% monomer,[1]; 357 h,56.7%
same,% dimer,[1]; 404 h,51.4%
same,% monomer,[1]; 404 h,48.6%
same,% dimer,[1]; 477 h,68.7%
same,% monomer,[1]; 477 h,31.3%
same,% dimer,[1]; 525 h,83.2%
same,% monomer,[1]; 525 h,16.8%
same,% dimer,[1]; 622 h,100%
same,% monomer,[1]; 622 h,0%
same,% dimer,[2]; 0 h,6.1%
same,% monomer,[2]; 0 h,93.9%
same,% dimer,[2]; 161 h,11.6%
same,% monomer,[2]; 161 h,88.4%
same,% dimer,[2]; 335 h,12.5%
same,% monomer,[2]; 335 h,87.5%
same,% dimer,[2]; 498 h,14.6%
same,% monomer,[2]; 498 h,85.4%
same,% dimer,[2]; 670 h,14.8%
same,% monomer,[2]; 670 h,85.2%
same,% dimer,[2]; 832 h,15.7%
same,% monomer,[2]; 832 h,84.3%
same,% dimer,[2]; 1003 h,17.0%
same,% monomer,[2]; 1003 h,83.0%
same,% dimer,[2]; 1170 h,16.5%
same,% monomer,[2]; 1170 h,83.5%
same,% dimer,[2]; 1363 h,17.6%
same,% monomer,[2]; 1363 h,82.4%
same,% dimer,[2]; 1506 h,18.6%
same,% monomer,[2]; 1506 h,81.4%
same,% dimer,[2]; 1698 h,19.2%
same,% monomer,[2]; 1698 h,80.8%
same,% pure in the solid phase,"[3]; solid phase, after more than 800 hours at room temperature, i.e., 23-25° C.",greater than 82%
same,% dimer,[3]; 0 h,8.5%
same,% monomer,[3]; 0 h,91.5%
same,% dimer,[3]; 73 h,10.0%
same,% monomer,[3]; 73 h,90.0%
same,% dimer,[3]; 143 h,11.5%
same,% monomer,[3]; 143 h,88.5%
same,% dimer,[3]; 243 h,12.7%
same,% monomer,[3]; 243 h,87.3%
same,% dimer,[3]; 312 h,14.0%
same,% monomer,[3]; 312 h,86.0%
same,% dimer,[3]; 410 h,13.8%
same,% monomer,[3]; 410 h,86.2%
same,% dimer,[3]; 576 h,15.2%
same,% monomer,[3]; 576 h,84.8%
same,% dimer,[3]; 677 h,16.1%
same,% monomer,[3]; 677 h,83.9%
same,% dimer,[3]; 818 h,17.9%
same,% monomer,[3]; 818 h,82.1%
same,% dimer,[4]; 0 h,7.8%
same,% monomer,[4]; 0 h,92.2%
same,% dimer,[4]; 69 h,26.1%
same,% monomer,[4]; 69 h,73.9%
same,% dimer,[4]; 140 h,30.7%
same,% monomer,[4]; 140 h,69.3%
same,% dimer,[4]; 213 h,35.0%
same,% monomer,[4]; 213 h,65.0%
same,% dimer,[4]; 332 h,42.5%
same,% monomer,[4]; 332 h,57.5%
same,% dimer,[4]; 408 h,46.4%
same,% monomer,[4]; 408 h,53.6%
same,% dimer,[4]; 479 h,51.0%
same,% monomer,[4]; 479 h,49.0%
same,% dimer,[4]; 549 h,56.2%
same,% monomer,[4]; 549 h,43.8%
same,% dimer,[4]; 645 h,68.9%
same,% monomer,[4]; 645 h,31.1%
same,% dimer,[4]; 720 h,82.2%
same,% monomer,[4]; 720 h,17.8%
same,% dimer,[4]; 836 h,98.5%
same,% monomer,[4]; 836 h,1.5%
Ac-Pro-His-Ser-Cys-Asn-NH2 Methanesulfonic Acid Salt (Ac-PHSCN-NH2; also: methanesulfonic acid salt),% dimer,[2]; 0 h,6.8%
same,% monomer,[2]; 0 h,93.2%
same,% dimer,[2]; 161 h,7.2%
same,% monomer,[2]; 161 h,92.8%
same,% dimer,[2]; 335 h,7.5%
same,% monomer,[2]; 335 h,92.5%
same,% dimer,[2]; 498 h,7.0%
same,% monomer,[2]; 498 h,93.0%
same,% dimer,[2]; 670 h,7.7%
same,% monomer,[2]; 670 h,92.3%
same,% dimer,[2]; 832 h,7.2%
same,% monomer,[2]; 832 h,92.8%
same,% dimer,[2]; 1003 h,7.2%
same,% monomer,[2]; 1003 h,92.8%
same,% dimer,[2]; 1170 h,7.3%
same,% monomer,[2]; 1170 h,92.7%
same,% dimer,[2]; 1363 h,8.6%
same,% monomer,[2]; 1363 h,91.4%
same,% dimer,[2]; 1506 h,7.6%
same,% monomer,[2]; 1506 h,92.4%
same,% dimer,[2]; 1698 h,8.1%
same,% monomer,[2]; 1698 h,91.9%
same,% dimer,[4]; 0 h,7.4%
same,% monomer,[4]; 0 h,92.6%
same,% dimer,[4]; 69 h,22.6%
same,% monomer,[4]; 69 h,77.4%
same,% dimer,[4]; 140 h,30.3%
same,% monomer,[4]; 140 h,69.7%
same,% dimer,[4]; 213 h,37.2%
same,% monomer,[4]; 213 h,62.8%
same,% dimer,[4]; 332 h,48.0%
same,% monomer,[4]; 332 h,52.0%
same,% dimer,[4]; 408 h,54.5%
same,% monomer,[4]; 408 h,45.5%
same,% dimer,[4]; 479 h,60.5%
same,% monomer,[4]; 479 h,39.5%
same,% dimer,[4]; 549 h,66.7%
same,% monomer,[4]; 549 h,33.3%
same,% dimer,[4]; 645 h,74.3%
same,% monomer,[4]; 645 h,25.7%
same,% dimer,[4]; 720 h,79.5%
same,% monomer,[4]; 720 h,20.5%
same,% dimer,[4]; 836 h,84.8%
same,% monomer,[4]; 836 h,15.2%
"Ac-Pro-His-Ser-Cys-Asn-NH2, hydrochloride salt (Ac-PHSCN-NH2; also: hydrochloride salt)",% dimer,[1]; 0 h,0%
same,% monomer,[1]; 0 h,100%
same,% dimer,[1]; 69 h,3.3%
same,% monomer,[1]; 69 h,96.7%
same,% dimer,[1]; 140 h,6.1%
same,% monomer,[1]; 140 h,93.9%
same,% dimer,[1]; 188 h,6.4%
same,% monomer,[1]; 188 h,93.6%
same,% dimer,[1]; 236 h,6.8%
same,% monomer,[1]; 236 h,93.2%
same,% dimer,[1]; 309 h,6.7%
same,% monomer,[1]; 309 h,93.3%
same,% dimer,[1]; 357 h,6.7%
same,% monomer,[1]; 357 h,93.3%
same,% dimer,[1]; 404 h,7.3%
same,% monomer,[1]; 404 h,92.7%
same,% dimer,[1]; 477 h,8.4%
same,% monomer,[1]; 477 h,91.6%
same,% dimer,[1]; 525 h,9.0%
same,% monomer,[1]; 525 h,91.0%
same,% dimer,[1]; 622 h,10.7%
same,% monomer,[1]; 622 h,89.3%
same,% dimer,[3]; 0 h,0%
same,% monomer,[3]; 0 h,100%
same,% dimer,[3]; 73 h,0%
same,% monomer,[3]; 73 h,100%
same,% dimer,[3]; 143 h,0%
same,% monomer,[3]; 143 h,100%
same,% dimer,[3]; 243 h,0%
same,% monomer,[3]; 243 h,100%
same,% dimer,[3]; 312 h,0%
same,% monomer,[3]; 312 h,100%
same,% dimer,[3]; 410 h,0%
same,% monomer,[3]; 410 h,100%
same,% dimer,[3]; 576 h,0.3%
same,% monomer,[3]; 576 h,99.7%
same,% dimer,[3]; 677 h,0.7%
same,% monomer,[3]; 677 h,99.3%
same,% dimer,[3]; 818 h,0%
same,% monomer,[3]; 818 h,100%
